Results on one substance are retold here after PMC7840992.

The target in this assay is luminGAVPO (luminescent GAVPO), Nluc-GAVPO fusion with NG configuration.

In the case of “luminGAVPO (luminescent GAVPO), Nluc-GAVPO fusion with NG configuration”, the induction ratio of a Gluc reporter driven by Gal4 binding sites, HEK293 cells, furimazine alone 0-25 uM, maximum at 2.5 uM is 116 fold.
